In patent US20200199213A1 (Eli Lilly, published 2020):

T1: LPL (lipoprotein lipase) on LPL-expressing cells of Example 1
T1 sequence (P06858 28-475, species assumed, looked up): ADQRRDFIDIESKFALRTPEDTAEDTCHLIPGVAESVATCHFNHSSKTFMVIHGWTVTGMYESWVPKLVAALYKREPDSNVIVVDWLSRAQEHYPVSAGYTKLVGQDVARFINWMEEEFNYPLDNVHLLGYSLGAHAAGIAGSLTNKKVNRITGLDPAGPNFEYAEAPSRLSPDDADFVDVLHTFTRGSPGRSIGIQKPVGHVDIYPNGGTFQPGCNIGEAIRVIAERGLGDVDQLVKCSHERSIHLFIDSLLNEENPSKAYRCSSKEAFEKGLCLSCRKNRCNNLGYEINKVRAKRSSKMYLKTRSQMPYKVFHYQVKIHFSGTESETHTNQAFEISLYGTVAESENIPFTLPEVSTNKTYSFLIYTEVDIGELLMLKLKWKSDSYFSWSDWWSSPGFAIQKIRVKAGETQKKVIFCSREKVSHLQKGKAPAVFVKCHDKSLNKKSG

T2: human LPL (human, UniProt P06858 28-475)
T2 sequence (looked up): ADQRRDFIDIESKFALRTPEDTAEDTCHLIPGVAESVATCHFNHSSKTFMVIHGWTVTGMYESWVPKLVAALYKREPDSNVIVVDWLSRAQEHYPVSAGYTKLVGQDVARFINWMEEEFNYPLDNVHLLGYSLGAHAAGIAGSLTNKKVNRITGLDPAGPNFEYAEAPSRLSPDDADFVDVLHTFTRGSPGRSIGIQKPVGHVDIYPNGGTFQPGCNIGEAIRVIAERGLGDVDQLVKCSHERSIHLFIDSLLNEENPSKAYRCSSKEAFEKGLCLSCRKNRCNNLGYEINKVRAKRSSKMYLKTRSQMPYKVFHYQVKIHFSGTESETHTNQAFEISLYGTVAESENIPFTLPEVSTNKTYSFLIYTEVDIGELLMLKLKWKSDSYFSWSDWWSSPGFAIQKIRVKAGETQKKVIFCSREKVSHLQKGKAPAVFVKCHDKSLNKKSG

T3: cynomolgus LPL (cynomolgus, UniProt A0A7N9D851 28-475)
T3 sequence: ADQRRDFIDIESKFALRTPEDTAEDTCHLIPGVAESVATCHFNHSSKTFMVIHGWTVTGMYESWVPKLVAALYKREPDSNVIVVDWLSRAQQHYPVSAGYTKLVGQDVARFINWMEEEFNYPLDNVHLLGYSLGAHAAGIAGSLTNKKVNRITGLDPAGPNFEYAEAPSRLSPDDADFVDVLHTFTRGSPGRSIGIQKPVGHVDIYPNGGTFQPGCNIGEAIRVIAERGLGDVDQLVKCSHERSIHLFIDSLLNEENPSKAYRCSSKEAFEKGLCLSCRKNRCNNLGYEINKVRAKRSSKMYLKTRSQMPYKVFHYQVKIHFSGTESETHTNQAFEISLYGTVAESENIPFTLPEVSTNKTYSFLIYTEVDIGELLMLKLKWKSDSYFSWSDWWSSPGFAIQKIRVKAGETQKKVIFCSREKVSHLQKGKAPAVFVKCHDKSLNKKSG

T4: human ANGPTL8 (human, UniProt Q6UXH0 22-198)
T4 construct: Biotinylated in the ELISA assays; also called hANGPTL8; free ANGPTL8
T4 sequence: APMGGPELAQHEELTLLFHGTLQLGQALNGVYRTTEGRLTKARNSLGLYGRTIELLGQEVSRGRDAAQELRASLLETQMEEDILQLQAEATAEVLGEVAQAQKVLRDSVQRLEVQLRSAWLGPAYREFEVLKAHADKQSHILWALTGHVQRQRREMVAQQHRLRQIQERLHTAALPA

T5: mouse ANGPTL3/8 complex (mouse, UniProt Q9R182 17-455; Q8R1L8 16-198, limits assumed)
T5 sequence (looked up) 1: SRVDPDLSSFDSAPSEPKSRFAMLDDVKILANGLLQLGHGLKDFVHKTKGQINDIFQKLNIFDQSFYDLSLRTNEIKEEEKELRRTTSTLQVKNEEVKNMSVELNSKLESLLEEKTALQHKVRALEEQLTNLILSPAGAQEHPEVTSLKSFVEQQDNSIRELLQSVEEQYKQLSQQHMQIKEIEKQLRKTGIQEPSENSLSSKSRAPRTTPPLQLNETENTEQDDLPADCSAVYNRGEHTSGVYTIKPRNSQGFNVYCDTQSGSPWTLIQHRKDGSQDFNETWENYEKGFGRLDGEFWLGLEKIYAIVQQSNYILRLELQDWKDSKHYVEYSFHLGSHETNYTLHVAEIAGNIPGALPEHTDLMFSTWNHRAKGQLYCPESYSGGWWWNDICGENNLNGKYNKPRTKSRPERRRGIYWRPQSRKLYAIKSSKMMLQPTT
T5 sequence (looked up) 2: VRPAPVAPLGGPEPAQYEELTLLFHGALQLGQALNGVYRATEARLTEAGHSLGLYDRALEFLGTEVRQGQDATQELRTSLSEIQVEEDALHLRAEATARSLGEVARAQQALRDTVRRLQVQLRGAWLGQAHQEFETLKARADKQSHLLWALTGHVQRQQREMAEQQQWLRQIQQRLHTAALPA

B1: human ANGPTL3 (other)
chain: SRIDQDNSSFDSLSPEPKSRFAMLDDVKILANGLLQLGHGLKDFVHKTKGQINDIFQKLNIFDQSFYDLSLQTSEIKEEEKELRRTTYKLQVKNEEVKNMSLELNSKLESLLEEKILLQQKVKYLEEQLTNLIQNQPETPEHPEVTSLKTFVEKQDNSIKDLLQTVEDQYKQLNQQHSQIKEIENQLRRTSIQEPTEISLSSKPRAPRTTPFLQLNEIRNVKHDGIPAECTTIYNRGEHTSGMYAIRPSNSQVFHVYCDVISGSPWTLIQHRIDGSQNFNETWENYKYGFGRLDGEFWLGLEKIYSIVKQSNYVLRIELEDWKDNKHYIEYSFYLGNHETNYTLHLVAITGNVPNAIPENKDLVFSTWDHKAKGHFNCPEGYSGGWWWHDECGENNLNGKYNKPRAKSKPERRRGLSWKSQNGRLYSIKSTKMLIHPTDSESFE
B2: human ANGPTL3/8 complex (other)
chain 1: SRIDQDNSSFDSLSPEPKSRFAMLDDVKILANGLLQLGHGLKDFVHKTKGQINDIFQKLNIFDQSFYDLSLQTSEIKEEEKELRRTTYKLQVKNEEVKNMSLELNSKLESLLEEKILLQQKVKYLEEQLTNLIQNQPETPEHPEVTSLKTFVEKQDNSIKDLLQTVEDQYKQLNQQHSQIKEIENQLRRTSIQEPTEISLSSKPRAPRTTPFLQLNEIRNVKHDGIPAECTTIYNRGEHTSGMYAIRPSNSQVFHVYCDVISGSPWTLIQHRIDGSQNFNETWENYKYGFGRLDGEFWLGLEKIYSIVKQSNYVLRIELEDWKDNKHYIEYSFYLGNHETNYTLHLVAITGNVPNAIPENKDLVFSTWDHKAKGHFNCPEGYSGGWWWHDECGENNLNGKYNKPRAKSKPERRRGLSWKSQNGRLYSIKSTKMLIHPTDSESFEAAADYKDDDDK
chain 2: APMGGPELAQHEELTLLFHGTLQLGQALNGVYRTTEGRLTKARNSLGLYGRTIELLGQEVSRGRDAAQELRASLLETQMEEDILQLQAEATAEVLGEVAQAQKVLRDSVQRLEVQLRSAWLGPAYREFEVLKAHADKQSHILWALTGHVQRQRREMVAQQHRLRQIQERLHTAALPA

Columns and labels:
[1] = target: T1, LPL (lipoprotein lipase) on …; assay: cell-based or functional assay
human LPL = target: T2, human LPL; assay: cell-based or functional assay
cynomolgus LPL = target: T3, cynomolgus LPL; assay: cell-based or functional assay
human ANGPTL8 [2] = target: T4, human ANGPTL8; assay: single point ELISA
Experimental: (§1) Single Point ELISA (SPE) Assay: Ab binding selectivity to either the ANGPTL3/8 complex, free ANGPTL3 or free ANGPTL8 is initially verified using standard ELISA assays in a single point format. […] IgG secreted into supernatants after expression in CHO cells are then captured to the assay plate. Biotinylated antigen is added at a concentration of 25 nM to allow for Ab/antigen binding. Ab/antigen complexes are detected after adding alkaline phosphatase-conjugated neutravidin and alkaline phosphatase substrate, and subsequent measurement of the optical density at 560 nm. Positive binding is determined by a signal greater than 3 fold over the non-binding background signal.

human ANGPTL3 [3] = target: B1; assay: single point ELISA
Experimental: as §1

mouse ANGPTL3/8 complex = target: T5, mouse ANGPTL3/8 complex; assay: cell-based or functional assay
human ANGPTL3/8 complex [4] = target: B2; assay: cell-based or functional assay
human ANGPTL3/8 complex [5] = target: B2; assay: single point ELISA; IgG captured by anti-human Fc; biotinylated antigen at 25 nM
Experimental: as §1

human ANGPTL8 [6] = target: T4, human ANGPTL8; assay: as above
Experimental: as §1

human ANGPTL3 [7] = target: B1; assay: as above
Experimental: as §1

EC50 in the LPL assay (inhibition of LPL) [1] [nM] | binding result (human ANGPTL8 [2]) | binding result (human ANGPTL3 [3]) | OD at 560 nm (human ANGPTL3/8 complex [5]) [OD 560 nm] | OD at 560 nm (human ANGPTL8 [6]) [OD 560 nm] | OD at 560 nm (human ANGPTL3 [7]) [OD 560 nm] | Binder | other results
21.5 |  |  |  |  |  | B1 | 
0.54 |  |  |  |  |  | B2 | IC80 concentration (inhibition of LPL activity) (human LPL): 0.42 nM
 |  |  |  |  |  | cynomolgus ANGPTL3/8 complex (other) chain 1: SRIDQDNSSFDSVSPEPKSRFAMLDDVKILANGLLQLGHGLKDFVHKTKGQINDIFQKLNIFDQSFYDLSLQTSEIKEEEKELRRTTYKLQVKNEEVKNMSLELNSKLESLLEEKILLQQKVKYLEEQLTNLIQNQPATPEHPEVTSLKSFVEKQDNSIKDLLQTVEEQYKQLNQQHSQIKEIENQLRMTNIQEPTEISLSSKPRAPRTTPFLQLNEIRNVKHDGIPADCTTIYNRGEHISGTYAIRPSNSQVFHVYCDVVSGSPWTLIQHRIDGSQNFNETWENYKYGFGRLDGEFWLGLEKIYSIVKQSNYVLRIELEDWKDNKHYIEYSFYLGNHETNYTLHVVKITGNVPNAIPENKDLVFSTWDHKAKGHFSCPESYSGGWWWHDECGENNLNGKYNKPRTKSKPERRRGLSWKSQNGRLYSIKSTKMLIHPTDSESFE chain 2: APVSSPELAEHEELTLLFHGTLQLGQALNGVYKTTEGRLTKARNSLGLYGRTVELLGQEVSRGRDAAQELRASLLETQMEEDILQLKAEAIAEVLEEVAQAQKVLQDSVRQLEVQLRSAWLGPAYQEFEVLKAHADKQSHILWALTGHVQRQRREMVAQQHRLRQIQERIHKAALPA | IC80 concentration (inhibition of LPL activity) (cynomolgus LPL): 0.38 nM
 | no binding | no binding | 0.661 | 0.07 | 0.06 | Ab with LC variant having a D33T mutation (SEQ ID NO:23) and a HC of SEQ ID NO:6 (antibody, human IgG4 S228P, kappa, F234A L235A, V domains shown, also called D33T Ab) VH: QVTLKESGPTLVKPTQTLTLTCTFSGFSLSISGVGVGWIRQPPGKALEWLALIYRNDDKRYSPSLKSRLTITKDTSKNQVVLTLTNMDPVDTATYYCARTYSSGWYGNWFDPWGQGTLVTVSS VL: DIVMTQTPLSLPVTPGEPASISCRSSQSLLDSTDGNTYLDWYLQKPGQSPQLLIYMLSYRASGVPDRFSGSGSGTDFTLKISRVEAEDVGIYYCMQRIEFPLTFGGGTKVEIKR | % Max Derepression LPL (mouse ANGPTL3/8 complex): 114%; Ab EC50 (nM), derepression of LPL (mouse ANGPTL3/8 complex): 4.55 nM; % Max Derepression LPL (human ANGPTL3/8 complex [4]): 105%; Ab EC50 (nM), derepression of LPL (human ANGPTL3/8 complex [4]): 1.56 nM
 | no binding | no binding | 0.775 | 0.085 | 0.06 | Ab with LC variant having a M56T mutation (SEQ ID NO:24) and a HC of SEQ ID NO:6 (antibody, human IgG4 S228P, kappa, F234A L235A, V domains shown) VH: QVTLKESGPTLVKPTQTLTLTCTFSGFSLSISGVGVGWIRQPPGKALEWLALIYRNDDKRYSPSLKSRLTITKDTSKNQVVLTLTNMDPVDTATYYCARTYSSGWYGNWFDPWGQGTLVTVSS VL: DIVMTQTPLSLPVTPGEPASISCRSSQSLLDSDDGNTYLDWYLQKPGQSPQLLIYTLSYRASGVPDRFSGSGSGTDFTLKISRVEAEDVGIYYCMQRIEFPLTFGGGTKVEIKR | 
